B1: CPEB3 Ribozyme (parent)
chain: GGGGGCCACAGCAGAAGCGUUCACGUCGCGGCCCCUGUCAGAUUCUGGUGAAUCUGCGAAUUCUGCUGU

Variants of: B1
Experiment: self-cleavage, relative activity (ratio to wild type); higher = more cleavage; co-transcriptional

| Variant | self-cleavage |
| --- | --- |
| GGGGGCCACAGCAUAAGCGUUCACGUCGCGGCCCCUGUCAGAUUCAGGUGAAUCUGCGAAUUCUGCUGU | 0.862 |
| GGGGGCCACAGCAUAAGCGUUCACGUCGCGGCCCCUGUCAGAUUCCGGUGAAUCUGCGAAUUCUGCUGU | 0.758 |
| GGGGGCCACAGCAUAAGCGUUCACGUCGCGGCUCCUGUCAGAUUCUGGUGAAUCUGCGAAUUCUGCUGU | 0.79 |
| GGGGGCCACAGCAUAAGCGUUCACGUCGCGGCACCUGUCAGAUUCUGGUGAAUCUGCGAAUUCUGCUGU | 0.522 |
| GGGGGCCACAGCAUAAGCGUUCACGUCGCGGCCCCUGUCAGAUUCUGGUUAAUCUGCGAAUUCUGCUGU | 0.815 |
| GGGGGCCACAGCAUAAGCGUUCACGUCGCGGCCCCUGUCAGAUUCUGGUCAAUCUGCGAAUUCUGCUGU | 0.616 |
| GGGGGCCACAGCAUAAGCGUUCACGUCGCGGCCCCUGUCAGAUUCUGGUAAAUCUGCGAAUUCUGCUGU | 0.812 |
| GGGGGCCACAGCAUAAGCGUUCACGUCGCGGCCCCUGUCAGAUUCUGGGGAAUCUGCGAAUUCUGCUGU | 0.867 |
| GGGGGCCACAGCAUAAGCGUUCACGUCGCGGCCCCUGUCAGAUUCUGGCGAAUCUGCGAAUUCUGCUGU | 0.678 |
| GGGGGCCACAGCAUAAGCGUUCACGUCGCGGCCCCUGUCAGAUCCUGGUGAAUCUGCGAAUUCUGCUGU | 0.325 |
| GGGGGCCACAGCAUAAGCGUUCACGUCUCGGCCCCUGUCAGAUUCUGGUGAAUCUGCGAAUUCUGCUGU | 0.164 |
| GGGGGCCACAGCAUAAGCGUUCACGUCGCAGCCCCUGUCAGAUUCUGGUGAAUCUGCGAAUUCUGCUGU | 0.288 |
| GGGGGCCACAGCAUAAGCGUUCACGUCGCUGCCCCUGUCAGAUUCUGGUGAAUCUGCGAAUUCUGCUGU | 0.155 |
| GGGGGCCACAGCAUAAGCGUUCACGUCGCCGCCCCUGUCAGAUUCUGGUGAAUCUGCGAAUUCUGCUGU | 0.187 |
| GGGGGCCACAGCAUAAGCGUUCACGUCGCGGCCCCUGGCAGAUUCUGGUGAAUCUGCGAAUUCUGCUGU | 0.111 |
| GGGGGCCACAGCAUAAGCGUUCACGUCGCGGCCCCUGACAGAUUCUGGUGAAUCUGCGAAUUCUGCUGU | 0.566 |
| GGGGGCCACAGCAUAAGCGUUCACGUCGCGGCCCCUGCCAGAUUCUGGUGAAUCUGCGAAUUCUGCUGU | 0.573 |
| GGGGGCCACAGCAUAAGCGUUCACGUCGCGGCCCCUGUCAGAUUCUGGUGAAUCUGCGAAUUCUGCUUU | 0.816 |
| GGGGGCCACAGCAUAAGCGUUCACGUCGCGGCCCCUGUCAGAUUCUGAUGAAUCUGCGAAUUCUGCUGU | 0.893 |
| GGGGGCCACAGCAUAAGCGUUCACGUUGCGGCCCCUGUCAGAUUCUGGUGAAUCUGCGAAUUCUGCUGU | 0.15 |
| GGGGGCCACAGCAUAAGCGUACACGUCGCGGCCCCUGUCAGAUUCUGGUGAAUCUGCGAAUUCUGCUGU | 0.733 |
| GGGGGCCACAGCAUAAGCGUCCACGUCGCGGCCCCUGUCAGAUUCUGGUGAAUCUGCGAAUUCUGCUGU | 0.379 |
| GGGGGCCACAGCAUAAGCGUUCACGUCGCGGCCCCUGUCAGAUUCUGGUGAAUCUGCGAAUUCUGAUGU | 0.374 |
| GGGGGCCACAGCAUAAGCGUUCACGUCGCGGCCCCUGUCAGAUUCUGGUGAAUCUGCGAAUUCUGGUGU | 0.325 |
| GGGGGCCACAGCAUAAGCGUUCACGACGCGGCCCCUGUCAGAUUCUGGUGAAUCUGCGAAUUCUGCUGU | 0.555 |
| GGGGGCCACAGCAUAAGCGUUCACGGCGCGGCCCCUGUCAGAUUCUGGUGAAUCUGCGAAUUCUGCUGU | 0.559 |

| Variant | self-cleavage |
| --- | --- |
| GGGGGCCACAGCAUAAGCGUUCACGUCGCGGCCCCUGUCAGAUUCUGGUGAAUCUGGGAAUUCUGCUGU | 0.246 |
| GGGGGCCACAGCAUAAGCGUUCACGUCGCGGCCCCUGUCAGAUUCUGGUGAAUCUGUGAAUUCUGCUGU | 0.351 |
| GGGGGCCACAGCAUAAGCGUUCACGUCGCGGCCCCUGUCAGAUUCUGGUGAAUCUGAGAAUUCUGCUGU | 0.216 |
| GGGGGCCACAGCAUAAGCAUUCACGUCGCGGCCCCUGUCAGAUUCUGGUGAAUCUGCGAAUUCUGCUGU | 0.148 |
| GGGGGCCACAGCAUAAGCGGUCACGUCGCGGCCCCUGUCAGAUUCUGGUGAAUCUGCGAAUUCUGCUGU | 0.137 |
| GGGGGCCACAGCAUAAGCGAUCACGUCGCGGCCCCUGUCAGAUUCUGGUGAAUCUGCGAAUUCUGCUGU | 0.121 |
| GGGGGCCACAGCAUAAGCGUUCACGUCGCGGCCCCUGUCAGAUUAUGGUGAAUCUGCGAAUUCUGCUGU | 0.665 |
| GGGGGCCACAGCAUAAGCGUUCACGUCGCGGCCCCUGUCAGAUUUUGGUGAAUCUGCGAAUUCUGCUGU | 0.721 |
| GGGGGCCACAGCAUAAGCGUUCACGUCGCGGCCCCUGUCAGAUUGUGGUGAAUCUGCGAAUUCUGCUGU | 0.62 |
| GGGGGCCACAGCAUAAGCGUUCACGUCGCGGCCCCUGUCACAUUCUGGUGAAUCUGCGAAUUCUGCUGU | 0.245 |
| GGGGGCCACAGCAUAAGCGUUCACGUCGGGGCCCCUGUCAGAUUCUGGUGAAUCUGCGAAUUCUGCUGU | 0.167 |
| GGGGGCCACAGCAUAAGCGUUCACGUCGUGGCCCCUGUCAGAUUCUGGUGAAUCUGCGAAUUCUGCUGU | 0.111 |
| GGGGGCCACAGCAUAAGCGUUCACGUCGAGGCCCCUGUCAGAUUCUGGUGAAUCUGCGAAUUCUGCUGU | 0.19 |
| GGGGGCCACAGCAUAAGCGUUCACGUCGCGGCCCCUGUCAGAUUCUGGUGAAUUUGCGAAUUCUGCUGU | 0.734 |
| GGGGGCCACAGCAUAAGCGUUCACGUCGCGGCCCCUGUCAGAUUCUGGUGAAUAUGCGAAUUCUGCUGU | 0.266 |
| GGGGGCCACAGCAUAAGCGUUCACGUCGCGGCCCCUGUCAGAUUCUGGUGAAUGUGCGAAUUCUGCUGU | 0.363 |
| GGGGGCCACAGCAUAAGCGUUCACGUCGCGGCCCCUGUCAGAUUCUGGUGAAUCUGCGAAUUAUGCUGU | 0.994 |
| GGGGGCCACAGCAUAAGCGUUCACGUCGCGGCCCCUGUCAGAUUCUGGUGAAUCUGCGAAUUUUGCUGU | 0.893 |
| GGGGGCCACAGCAUAAGCGUUCACGUCGCGGCCCCUGUCAGAUUCUGGUGAAUCUGCGAAUUGUGCUGU | 0.994 |
| GGGGGCCACAGCAUAAGCGUUCACGUCGCGGCCCCUGUCAGAUUCUGGUGAAACUGCGAAUUCUGCUGU | 0.356 |
| GGGGGCCACAGCAUAAGCGUUCACGUCGCGGCCCCUUUCAGAUUCUGGUGAAUCUGCGAAUUCUGCUGU | 0.129 |
| GGGGGCCACAGCAUAAGCGUUCACGUCGCGGCCCCUCUCAGAUUCUGGUGAAUCUGCGAAUUCUGCUGU | 0.129 |
| GGGGGCCACAGCAUAAGCGUUCACGUCGCGGCCCCAGUCAGAUUCUGGUGAAUCUGCGAAUUCUGCUGU | 0.18 |
| GGGGGCCACAGCAUAAGCGUUCACGUCGCGGCCCUUGUCAGAUUCUGGUGAAUCUGCGAAUUCUGCUGU | 0.601 |
| GGGGGCCACAGCAUAAGCGUUCACGUCGCGGCCCGUGUCAGAUUCUGGUGAAUCUGCGAAUUCUGCUGU | 0.309 |
| GGGGGCCACAGCAUAAGCGUUCACGUCGCGGCCCCUGUUAGAUUCUGGUGAAUCUGCGAAUUCUGCUGU | 0.394 |

| Variant | self-cleavage |
| --- | --- |
| GGGGGCCACAGCAUAAGCGUUCACGUCGCGGCCCCUGUGAGAUUCUGGUGAAUCUGCGAAUUCUGCUGU | 0.373 |
| GGGGGCCACAGCAUAAGCGUUCACGUCGCGGUCCCUGUCAGAUUCUGGUGAAUCUGCGAAUUCUGCUGU | 0.816 |
| GGGGGCCACAGCAUAAGCGUUCACGUCGCGGACCCUGUCAGAUUCUGGUGAAUCUGCGAAUUCUGCUGU | 0.333 |
| GGGGGCCACAGCAUAAGCGUUCACGUCGCGGCCACUGUCAGAUUCUGGUGAAUCUGCGAAUUCUGCUGU | 0.526 |
| GGGGGCCACAGCAUAAGCGUUCACGUCGCGGCCUCUGUCAGAUUCUGGUGAAUCUGCGAAUUCUGCUGU | 0.833 |
| GGGGGCCACAGCAUAAGCGUUCACGUCGCGGCCGCUGUCAGAUUCUGGUGAAUCUGCGAAUUCUGCUGU | 0.347 |
| GGGGGCCACAGCAUAAUCGUUCACGUCGCGGCCCCUGUCAGAUUCUGGUGAAUCUGCGAAUUCUGCUGU | 0.161 |
| GGGGGCCACAGCAUAAACGUUCACGUCGCGGCCCCUGUCAGAUUCUGGUGAAUCUGCGAAUUCUGCUGU | 0.145 |
| GGGGGCCACAGCAUAAGCGUUCACGUCGCGGCCCCUGUCAGAUUCUGGUGAAUCUGCAAAUUCUGCUGU | 0.679 |
| GGGGGCCACAGCAUAAGCGUUCACGUCGCGGCCCCUGUCAGAUUCUGGUGAAUCUGCCAAUUCUGCUGU | 0.72 |
| GGGGGCCACAGCAUAAGCGUUCACGUCGCGGCCCCUGUCAGAUUCUGGUGAAUCUCCGAAUUCUGCUGU | 0.292 |
| GGGGGCCACAGCAUAAGCGUUCACGUCGCGGCCCCUGUCAGAUUCUGGUGAAUCUUCGAAUUCUGCUGU | 0.309 |
| GGGGGCCACAGCAUAAGCGUUCACGUCGCGGCCCCUGUCAGACUCUGGUGAAUCUGCGAAUUCUGCUGU | 0.472 |
| GGGGGCCACAGCAUAAGCGUUCACGUCGCGGCCCCUGUCAGAGUCUGGUGAAUCUGCGAAUUCUGCUGU | 0.278 |
| GGGGGCCACAGCAUAAGCGUUCACGUCGCGGCCCCUGUCAGAUUCUAGUGAAUCUGCGAAUUCUGCUGU | 0.836 |
| GGGGGCCACAGCAUAAGCGUUCACGUCGCGGCCCCUGUCAGAUUCUCGUGAAUCUGCGAAUUCUGCUGU | 0.877 |
| GGGGGCCACAGCAUAAGCGUUCACGUCGCGGCCCCUGUCAGAUUCUUGUGAAUCUGCGAAUUCUGCUGU | 0.857 |
| GGGGGCCACAGCAUAAGCGUUCACGUCGCGGCCCCUGUCAGAUUCUGGUGAAUCUGCGAAUUCUACUGU | 0.32 |
| GGGGGCCACAGCAUAAGCGUUCACGUCGCGGCCCCUGUCAGAUUCUGGUGAAUCUGCGAAUUCUUCUGU | 0.334 |
| GGGGGCCACAGCAUAAGCGUUCACGUCGCGGCCCCUGUCAGAUUCUGGUGAAUCUGCGAAUUCUCCUGU | 0.384 |
| GGGGGCCACAGCAUAAGCGUUCACAUCGCGGCCCCUGUCAGAUUCUGGUGAAUCUGCGAAUUCUGCUGU | 0.141 |
| GGGGGCCACAGCAUAAGCGUUCACUUCGCGGCCCCUGUCAGAUUCUGGUGAAUCUGCGAAUUCUGCUGU | 0.124 |
| GGGGGCCACAGCAUAAGCGUUCACCUCGCGGCCCCUGUCAGAUUCUGGUGAAUCUGCGAAUUCUGCUGU | 0.204 |
| GGGGGCCACAGCAUAAGCGUUCACGUCGCGUCCCCUGUCAGAUUCUGGUGAAUCUGCGAAUUCUGCUGU | 0.164 |
| GGGGGCCACAGCAUAAGCGUUCACGUCGCGCCCCCUGUCAGAUUCUGGUGAAUCUGCGAAUUCUGCUGU | 0.163 |
| GGGGGCCACAGCAUAAGCGUUCACGUCGCGACCCCUGUCAGAUUCUGGUGAAUCUGCGAAUUCUGCUGU | 0.305 |

— the RNAGym collection of RNA variant scans (doi:10.7554/elife.80360)
